Data on 47 variants can be found in the Human Domainome abundance scans (Beltran et al. 2025).

To fix the notation:
B1: Zinc finger homeobox protein 3, residues 2147 to 2202; numbered along this chain, Q15911 (parent)
chain: RPRTRITDDQLRVLRQYFDINNSPSEEQIKEMADKSGLPQKVIKHWFRNTLFKERQ

± gives the uncertainty stated by the source.

The variants in this data set derive from B1. The data set can be described thus: abundance fitness (aPCA) (normalised: wild type 0, dead -1); higher = more abundant; growth selection in yeast, the domain comes from the species named. As to conditions: Homo sapiens.
Turning to RPRTRITDDQLRVLRQYFDINNSPSEELIKEMADKSGLPQKVIKHWFRNTLFKERQ [Q28L], the abundance fitness was -0.205 ± 0.075.
Turning to RPRTRITDDQLRVLRQYFDINNSPSEEAIKEMADKSGLPQKVIKHWFRNTLFKERQ [Q28A], the abundance fitness was -0.042 ± 0.081.
As for RPRTRITDDQLRVLRQYFDINNSPTEEQIKEMADKSGLPQKVIKHWFRNTLFKERQ [S25T], the abundance fitness came to 0.012 ± 0.097.
For RPRTRITDDQLRVLRQYFDINNSPREEQIKEMADKSGLPQKVIKHWFRNTLFKERQ [S25R], the abundance fitness was -0.202 ± 0.071.
For the variant RPRTRITDDQLRVLRQYFDINNSPWEEQIKEMADKSGLPQKVIKHWFRNTLFKERQ [S25W], the abundance fitness was -0.901 ± 0.1.
The value for RPRTRITDDQLRVLRQYFDINNSPYEEQIKEMADKSGLPQKVIKHWFRNTLFKERQ [S25Y] was -0.382 ± 0.14; that for RPRTRITDDQLRVLRQYFDINNSPVEEQIKEMADKSGLPQKVIKHWFRNTLFKERQ [S25V] was -0.356 ± 0.078.
The value for RPRTRITDDQLRVLRQYFDINNSPSEEQIKAMADKSGLPQKVIKHWFRNTLFKERQ [E31A] was -0.151 ± 0.085.
Turning to RPRTRITDDQLRVLRQYFDINNSPSEEQIKFMADKSGLPQKVIKHWFRNTLFKERQ [E31F], the abundance fitness was -0.375 ± 0.14.
Then RPRTRITDDQLRVLRQYFDINNSPSEEQIKDMADKSGLPQKVIKHWFRNTLFKERQ [E31D], with 0.047 ± 0.12; and RPRTRITDDQLRVLRQYFDINNSPSEEQIKCMADKSGLPQKVIKHWFRNTLFKERQ [E31C], with -0.213 ± 0.11; and RPRTRITDDQLRVLRQYFDINNSPSEEQIKGMADKSGLPQKVIKHWFRNTLFKERQ [E31G], with -0.316 ± 0.074.
Then RPRTRITDDQLRVLRQYFDINNSPSFEQIKEMADKSGLPQKVIKHWFRNTLFKERQ [E26F], with -0.071 ± 0.13; and RPRTRITDDQLRVLRQYFDINNSPSKEQIKEMADKSGLPQKVIKHWFRNTLFKERQ [E26K], with -0.016 ± 0.098.
Then RPRTRITDDQLRVLRQYFDINNSPSNEQIKEMADKSGLPQKVIKHWFRNTLFKERQ [E26N], with -0.082 ± 0.15; and RPRTRITDDQLRVLRQYFDINNSPSDEQIKEMADKSGLPQKVIKHWFRNTLFKERQ [E26D], with 0.063 ± 0.097.
As for RPRTRITDDQLRVLRQYFDINNSPSPEQIKEMADKSGLPQKVIKHWFRNTLFKERQ [E26P], the abundance fitness is 0.031 ± 0.09.
Consider RPRTRITDDQLRVLRQYFDINNSPSMEQIKEMADKSGLPQKVIKHWFRNTLFKERQ [E26M], for which the abundance fitness is -0.133 ± 0.11.
Then RPRTRITDDQLRVLRQYFDINNSPSWEQIKEMADKSGLPQKVIKHWFRNTLFKERQ [E26W], with -0.265 ± 0.084.
Then RPRTRITDDQLRVLRQYFDINNSPSGEQIKEMADKSGLPQKVIKHWFRNTLFKERQ [E26G], with -0.192 ± 0.066.
As to RPRTRITDDQLRVLRQYFDINNSPSVEQIKEMADKSGLPQKVIKHWFRNTLFKERQ [E26V], the abundance fitness was -0.082 ± 0.071.
Then RPRTRITDDQLRVLRQYFDINNSPSHEQIKEMADKSGLPQKVIKHWFRNTLFKERQ [E26H], with -0.001 ± 0.11.
Turning to RPRTRITDDQLRVLRQYFDINNSPSCEQIKEMADKSGLPQKVIKHWFRNTLFKERQ [E26C], the abundance fitness worked out at 0.024 ± 0.091.
Turning to RPRTRITDDQLRVLRQYFDINNSPSYEQIKEMADKSGLPQKVIKHWFRNTLFKERQ [E26Y], the abundance fitness is 0.004 ± 0.13.
Then RPRTRITDDQLRVLRQYFDINNSPSREQIKEMADKSGLPQKVIKHWFRNTLFKERQ [E26R], with -0.093 ± 0.064; and RPRTRITDDQLRVLRQYFDINNSPSIEQIKEMADKSGLPQKVIKHWFRNTLFKERQ [E26I], with 0.086 ± 0.12; and RPRTRITDDQLRVLRQYFDINNSPSAEQIKEMADKSGLPQKVIKHWFRNTLFKERQ [E26A], with -0.043 ± 0.073.
The value for RPRTRITDDQLRVLRQYFDINNSPSQEQIKEMADKSGLPQKVIKHWFRNTLFKERQ [E26Q] was 0.171 ± 0.098; that for RPRTRITDDQLRVLRQYFDINNSPSTEQIKEMADKSGLPQKVIKHWFRNTLFKERQ [E26T] was -0.057 ± 0.091; that for RPRTRITDDQLRVLRQYFDINNSPSLEQIKEMADKSGLPQKVIKHWFRNTLFKERQ [E26L] was -0.089 ± 0.073.
The value for RPRTRITDDQLRVLRQYFDINNSPSEYQIKEMADKSGLPQKVIKHWFRNTLFKERQ [E27Y] was -0.08 ± 0.13; that for RPRTRITDDQLRVLRQYFDINNSPSELQIKEMADKSGLPQKVIKHWFRNTLFKERQ [E27L] was -0.102 ± 0.072.
With RPRTRITDDQLRVLRQYFDINNSPSERQIKEMADKSGLPQKVIKHWFRNTLFKERQ [E27R], the abundance fitness was -0.046 ± 0.062.
Then RPRTRITDDQLRVLRQYFDINNSPSETQIKEMADKSGLPQKVIKHWFRNTLFKERQ [E27T], with -0.011 ± 0.089.
Regarding RPRTRITDDQLRVLRQYFDINNSPSEAQIKEMADKSGLPQKVIKHWFRNTLFKERQ [E27A], the abundance fitness was 0.027 ± 0.072.
Then RPRTRITDDQLRVLRQYFDINNSPSEKQIKEMADKSGLPQKVIKHWFRNTLFKERQ [E27K], with 0.124 ± 0.11; and RPRTRITDDQLRVLRQYFDINNSPSEGQIKEMADKSGLPQKVIKHWFRNTLFKERQ [E27G], with -0.071 ± 0.065.
Regarding RPRTRITDDQLRVLRQYFDINNSPSEPQIKEMADKSGLPQKVIKHWFRNTLFKERQ [E27P], the abundance fitness is -0.078 ± 0.09.
The value for RPRTRITDDQLRVLRQYFDINNSPSEDQIKEMADKSGLPQKVIKHWFRNTLFKERQ [E27D] was 0.075 ± 0.1; that for RPRTRITDDQLRVLRQYFDINNSPSEQQIKEMADKSGLPQKVIKHWFRNTLFKERQ [E27Q] was 0.034 ± 0.092.
As for RPRTRITDDQLRVLRQYFDINNSPSEVQIKEMADKSGLPQKVIKHWFRNTLFKERQ [E27V], the abundance fitness is 0.013 ± 0.074.
Then RPRTRITDDQLRVLRQYFDINNSPSESQIKEMADKSGLPQKVIKHWFRNTLFKERQ [E27S], with 0.024 ± 0.077; and RPRTRITDDQLRVLRQYFDINNSPSEIQIKEMADKSGLPQKVIKHWFRNTLFKERQ [E27I], with -0.05 ± 0.13.
As to RPRTRITDDQLRVLRQYFDINNSPSECQIKEMADKSGLPQKVIKHWFRNTLFKERQ [E27C], the abundance fitness was -0.019 ± 0.094.
The value for RPRTRITDDQLRVLRQYFDINNSPSEHQIKEMADKSGLPQKVIKHWFRNTLFKERQ [E27H] was -0.147 ± 0.13; that for RPRTRITDDQLRVLRQYFDINNSPSEWQIKEMADKSGLPQKVIKHWFRNTLFKERQ [E27W] was -0.341 ± 0.079.
Then RPRTRITDDQLRVLRQYFDINNSPSEMQIKEMADKSGLPQKVIKHWFRNTLFKERQ [E27M], with -0.039 ± 0.097.
